The target in series [1] is His-tagged inceptor ectodomain (human) (UniProt Q6UXG2). In words: native MS; charge detection mass spectrometry (CDMS), Orbitrap Q Exactive UHMR; inceptor ECD-His (5 µM) alone or with insulin at 1:6 and 1:20, or with proinsulin; 150 mM ammonium acetate, pH 3–7; 37 °C for 30 min.
Series [2] has as its target inceptor–HaloTag fusion protein (FRET experiments, INS-1E cells) (human) (UniProt Q6UXG2). In words: FRET or BRET; live INS-1E cells overexpressing inceptor–HaloTag labelled with TMR; 100 nmol/l INS-630 and 0, 10, 100 and 1,000 nmol/l proinsulin in the medium for 40 min; corrected FRET efficiency by confocal imaging. (In BRET a luciferase serves as donor, and the signal depends on an acceptor being close.)

Series [3] concerns the molecule itself. In words: native MS; charge detection mass spectrometry (CDMS), Orbitrap Q Exactive UHMR; inceptor ECD-His (5 µM) alone or with insulin at 1:6 and 1:20, or with proinsulin; 150 mM ammonium acetate, pH 3–7; 37 °C for 30 min.

In general, stoichiometry N refers to a count of units in the complex or per binding partner. In the case of bovine proinsulin (ligand), in series [1], the N for each inceptor dimer is 1 and the stoichiometry N was determined as 1.
On to “proinsulin (unlabelled, added to the medium in the FRET experiments) (ligand)”, for which, in series [2], the reduction of the FRET signal of inceptor to INS-630 at a 1:10 molar ratio of proinsulin to insulin worked out at 50%.

B1: His-tagged inceptor ectodomain (domain or fragment, human, UniProt Q6UXG2 42-910, looked up)
chain: TGPELHACKESEYHYEYTACDSTGSRWRVAVPHTPGLCTSLPDPIKGTECSFSCNAGEFLDMKDQSCKPCAEGRYSLGTGIRFDEWDELPHGFASLSANMELDDSAAESTGNCTSSKWVPRGDYIASNTDECTATLMYAVNLKQSGTVNFEYYYPDSSIIFEFFVQNDQCQPNADDSRWMKTTEKGWEFHSVELNRGNNVLYWRTTAFSVWTKVPKPVLVRNIAITGVAYTSECFPCKPGTYADKQGSSFCKLCPANSYSNKGETSCHQCDPDKYSEKGSSSCNVRPACTDKDYFYTHTACDANGETQLMYKWAKPKICSEDLEGAVKLPASGVKTHCPPCNPGFFKTNNSTCQPCPYGSYSNGSDCTRCPAGTEPAVGFEYKWWNTLPTNMETTVLSGINFEYKGMTGWEVAGDHIYTAAGASDNDFMILTLVVPGFRPPQSVMADTENKEVARITFVFETLCSVNCELYFMVGVNSRTNTPVETWKGSKGKQSYTYIIEENTTTSFTWAFQRTTFHEASRKYTNDVAKIYSINVTNVMNGVASYCRPCALEASDVGSSCTSCPAGYYIDRDSGTCHSCPTNTILKAHQPYGVQACVPCGPGTKNNKIHSLCYNDCTFSRNTPTRTFNYNFSALANTVTLAGGPSFTSKGLKYFHHFTLSLCGNQGRKMSVCTDNVTDLRIPEGESGFSKSITAYVCQAVIIPPEVTGYKAGVSSQPVSLADRLIGVTTDMTLDGITSPAELFHLESLGIPDVIFFYRSNDVTQSCSSGRSTTIRVRCSPQKTVPGSLLLPGTCSDGTCDGCNFHFLWESAAACPLCSVADYHAIVSSCVAGIQKTTYVWREPKLCSGGISLPEQRVTICKTIDFWLK
notes: signal peptide in the construct; ectodomain of human inceptor (KIAA1324), Uniprot entry Q6UXG2, residues 1–910; Seen as monomer and, prevalently, as dimer by CDMS; also called inceptor ECD-His; inceptor ECD-6×His; source: HEK293 (pCDNA3-inceptor ECD-6×His), purified
As for B1, the “stoichiometry N” value in series [3] amounted to 2.

These data come from publication PMC11659164, “Inceptor binds to and directs insulin towards lysosomal degradation in β cells” (Nature Metabolism, 2024).
